Measured values from paper PMC9016069, “Inosine triphosphate pyrophosphatase from Trypanosoma brucei cleanses cytosolic pools from deaminated nucleotides” (Scientific Reports, 2022).

Experiments:
Experiment in all cases: HPLC (MonoQ) product analysis, fit to substrate inhibition model
TbITPA = target: T1, TbITPA (Trypanosoma brucei, UniProt Q389X7); type: biochemical; conditions: substrate inhibition constant; 5 mM MgCl2, 20 mM Tris-HCl pH 7.5, 0.1 mg/mL BSA, 1 mM DTT, 25 °C
T1 construct: gene Tb10.6k15.0290; homodimer 48 kDa by gel filtration
T1 sequence (Q389X7 87-287): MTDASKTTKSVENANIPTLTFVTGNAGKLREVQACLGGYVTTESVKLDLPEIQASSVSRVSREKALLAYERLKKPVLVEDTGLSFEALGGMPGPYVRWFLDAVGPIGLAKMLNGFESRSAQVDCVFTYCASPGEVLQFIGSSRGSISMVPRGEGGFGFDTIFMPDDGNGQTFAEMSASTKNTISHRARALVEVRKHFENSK
Text: HPLC (MonoQ) product analysis, fit to substrate inhibition model on TbITPA

[1] = substrate: NC(=O)c1ncn([C@@H]2O[C@H](CO[P@@](=O)(O)O[P@](=O)(O)OP(=O)(O)O)[C@@H](O)[C@H]2O)n1; type: biochemical, Trypanosoma brucei; conditions: 5 mM MgCl2, 20 mM Tris-HCl pH 7.5, 0.1 mg/mL BSA, 1 mM DTT, 25 °C
[2] = substrate: O=P(O)(O)OP(=O)(O)OP(=O)(O)OC[C@H]1O[C@@H](n2cnc3c(O)ncnc32)[C@H](O)[C@@H]1O; type: biochemical, Trypanosoma brucei; conditions: 5 mM MgCl2, 20 mM Tris-HCl pH 7.5, 0.1 mg/mL BSA, 1 mM DTT, 25 °C
[3] = substrate: O=c1[nH]c(=O)c2ncn([C@@H]3O[C@H](COP(=O)(O)OP(=O)(O)OP(=O)(O)O)[C@@H](O)[C@H]3O)c2[nH]1; type: biochemical, Trypanosoma brucei; conditions: 5 mM MgCl2, 20 mM Tris-HCl pH 7.5, 0.1 mg/mL BSA, 1 mM DTT, 25 °C
[4] = substrate: O=c1[nH]cnc2c1ncn2[C@H]1C[C@H](O)[C@@H](COP(=O)(O)OP(=O)(O)OP(=O)(O)O)O1; type: biochemical, Trypanosoma brucei; conditions: 5 mM MgCl2, 20 mM Tris-HCl pH 7.5, 0.1 mg/mL BSA, 1 mM DTT, 25 °C

O=c1[nH]cnc2c1ncn2[C@@H]1O[C@H](COP(=O)(O)OP(=O)(O)OP(=O)(O)O)[C@@H](O)[C@H]1O [ITP]
Ki (μM)^a (TbITPA): 824 ± 275 µM

O=c1[nH]c(=O)c2ncn([C@@H]3O[C@H](COP(=O)(O)OP(=O)(O)OP(=O)(O)O)[C@@H](O)[C@H]3O)c2[nH]1 [XTP]
Ki (μM)^a (TbITPA): 951 ± 220 µM

O=c1[nH]cnc2c1ncn2[C@H]1C[C@H](O)[C@@H](COP(=O)(O)OP(=O)(O)OP(=O)(O)O)O1 [dITP]
Ki (μM)^a (TbITPA): 98 ± 42 µM

B1: TbITPA (Trypanosoma brucei brucei TREU927) (protein)
chain: T1 sequence (Q389X7 87-287)
notes: homodimer 48 kDa by gel filtration
Km [1]: 75 ± 24 µM
kcat [1]: 100 ± 14 s⁻¹
Km [2]: 17 ± 3 µM
kcat [2]: 59 ± 5 s⁻¹
kcat/Km [2]: 3.5e+06 M⁻¹ s⁻¹
Km [3]: 27 ± 4 µM
kcat [3]: 37 ± 2 s⁻¹
kcat/Km [3]: 1.4e+06 M⁻¹ s⁻¹
Km [4]: 44 ± 18 µM
kcat [4]: 280 ± 74 s⁻¹
kcat/Km [4]: 6.4e+06 M⁻¹ s⁻¹
